Our source for the Kd and IC50 values is US20050037394, “Method for in vitro selection of 2'-substituted nucleic acids” (published 2005).

The target of data set [1] is T1, IFN-gamma (Homo sapiens, UniProt P01579 P01579:24-161). In words: filter; 1x DPBS, 0.1 mg/ml BSA; Table 21 gives 97. As to conditions: tags: R&D Systems, Minneapolis; chain copies: 2; label: 5'-32P.
Data set [2] addresses T1, IFN-gamma. As to the kind of experiment: inhibition; IFN-gamma/IFN-gamma-R1 ELISA day 1; day 2 100 nM. As to conditions: tags: R&D Systems, Minneapolis; chain copies: 2; label: 5'-32P. As for the experimental part:
(§1) IFN-γ ELISA: The following ELISA method was used to measure the ability of IFN-γ aptamers to inhibit hIFN-γ from binding to the IFNγ-R1 receptor. To capture the IFNγ-R1, 175 ng of IFNγ-R1 (R&D systems, Minneapolis, Minn.) in 100 μl of PBS (pH 7.4) was incubated in each well of a Nunc Maxisorb plate (Nunc, Rochester, N.Y.) for 2 hours at room temperature. The solution was discarded and the plate was washed 3 times with 200 μl of TBS-T (25 mM Tris-HCl pH 7.5, 150 mM NaCl and 0.01% Tween −20). The plate was then blocked with 200 μl of 5% nonfat dry milk in TBS-T for 30 minutes at room temperature. After blocking, the plate was washed 3 times with 200 μl of TBS-T. Then, 100 μl of various concentrations of aptamers mixed with 5 nmoles of IFN-γ (R & D Systems) were incubated in appropriate wells for 1.5 hours at room temperature. […] Subsequently, 100 μl of 2 N H₂SO₄ was added to stop the reaction and the plate was read in a SpectraMax 96 well plate reader at […].
(§2) IFNγ-R1 Binding Inhibition with hIFN-γ Aptamers: Five full length and 2 minimized aptamers to IFN-γ were tested for receptor binding inhibition activity using the ELISA method described above. […] IC₅₀'s for the duplicate assays were calculated and are shown in Table 22 below along with Kd values for each of the respective aptamers.
In general terms: In an ELISA, binding on a coated surface is turned into a signal by an enzyme label.

For data set [3], the target named is T2, Complement C5 full length (Homo sapiens, UniProt P01031;P01031 P01031:19-673,P01031:678-1676). As to the kind of experiment: inhibition; 0.2% human serum, sheep erythrocytes, GVB++, 25 C. As to conditions: tags: Quidel Corporation, San Diego. As for the experimental part:
Hemolysis Assay: The effect of the AMX221.E1 clone on the classical pathway of the complement system was analyzed using a hemolysis assay compared to both ARC186 (Anti-C5 aptamer, positive control) and unselected dRmY pool (negative control). In the assay of hemolytic inhibition, a solution of 0.2% whole human serum was mixed with antibody-coated sheep erythrocytes (Diamedix EZ Complement CH50 Test, Diamedix Corporation, Miami, Fla.) in the presence oftitrated AMX221.E1. The assay was run in veronal-buffered saline containing calcium, magnesium and 1% gelatin (GVB⁺⁺ complement buffer) and incubated for 1 hr at 25° C. After incubation the samples were centrifuged. The optical density at 415 nm (OD₄₁₅) of the supernatant was read. The inhibition of hemolysis activity is expressed as % hemolysis activity compared to control. The IC₅₀ of the clone was calculated to be about 30 nM.

In data set [4] the target is T2, Complement C5 full length. As to the kind of experiment: filter; 1x DPBS, extent of binding 20%. The following applies: tags: Quidel Corporation, San Diego.
In data set [5] the target is T1, IFN-gamma. As to the kind of experiment: inhibition; IFN-gamma/IFN-gamma-R1 ELISA day 1; day 2 190 nM. As to conditions: tags: R&D Systems, Minneapolis; chain copies: 2; label: 5'-32P. On the procedure:
as §1, §2

Data set [6] has as its target T1, IFN-gamma. In words: filter; 1x DPBS, 0.1 mg/ml BSA; Table 21 gives 227.87. The following applies: tags: R&D Systems, Minneapolis; chain copies: 2; label: 5'-32P.
The target of data set [7] is T1, IFN-gamma. In words: inhibition; IFN-gamma/IFN-gamma-R1 ELISA day 1; day 2 270 nM. As to conditions: tags: R&D Systems, Minneapolis; chain copies: 2; label: 5'-32P. As for the experimental part: as §1, §2
For data set [8], the target named is T1, IFN-gamma. In words: filter; 1x DPBS, 0.1 mg/ml BSA; Table 21 gives 169.28. The following applies: tags: R&D Systems, Minneapolis; chain copies: 2; label: 5'-32P.
The target in data set [9] is T1, IFN-gamma. As to the kind of experiment: inhibition; ELISA day 2; text assigns ARC873 to F3 but printed sequence matches E3. The following applies: tags: R&D Systems, Minneapolis; chain copies: 2; putative G4. On the procedure:
as §1, §2

Data set [10] addresses T3, VEGF (UniProt P15692-4 P15692-4:27-191). As to the kind of experiment: filter; dot-blot in PBS. As to conditions: chain copies: 2. On the procedure: (§3) Binding assays were performed with trace ³²P-body-labelled transcripts that were incubated with various protein concentrations in silanized wells, these were then passed through a sandwich of a nitrocellulose membrane over a nylon membrane. Protein-bound RNA is visualized on the NC membrane, unbound RNA on the nylon membrane. The proportion binding is then used to calculate affinity (see FIGS. 4, 5, and 6). The nomenclature “mGXG” indicates a substitution of 2′-OH G for 2′-OMe G at position “X”, as numbered sequentially from the 5′-terminus. Thus, mG7G ARC224 is ARC224 with a 2′-OH at position 7. ARC225 is ARC224 with 2′-OMe to 2′-OH substitutions at positions 7, 10, 14, 16, 19, 22 and 24. All constructs (initially identified by SELEX™) were generated by solid-phase chemical synthesis.

Data set [11] addresses T1, IFN-gamma. As to the kind of experiment: filter; 1x DPBS, 0.1 mg/ml BSA; Table 21 gives 206. As to conditions: tags: R&D Systems, Minneapolis; chain copies: 2; label: 5'-32P.
For data set [12], the target named is T3, VEGF. As to the kind of experiment: FP; placeholder corrected: dot-blot nitrocellulose/nylon filter in PBS. As to conditions: chain copies: 2. On the procedure: as §3
The target in data set [13] is T1, IFN-gamma. As to the kind of experiment: inhibition; IFN-gamma/IFN-gamma-R1 ELISA day 1; day 2 70 nM. The following applies: tags: R&D Systems, Minneapolis; chain copies: 2; label: 5'-32P. As for the experimental part: as §1, §2
The target of data set [14] is T1, IFN-gamma. As to the kind of experiment: filter; 1x DPBS, 0.1 mg/ml BSA; Table 21 gives 167.31. As to conditions: tags: R&D Systems, Minneapolis; chain copies: 2; label: 5'-32P.
Data set [15] has as its target T3, VEGF. In words: competition; 125I-VEGF binding to HUVEC. As to conditions: chain copies: 2. The text has this:
FIG. 5 is a plot of ARC224 and ARC225 binding to VEGF. […] The supernatant was removed, the cells were washed, and bound VEGF was counted in a scintillation counter. ARC225 has the same sequence as ARC224 and 2′-OMe to 2′-OH substitutions at positions 7, 10, 14, 16, 19, 22 and 24 numbered from the 5′-terminus.

Data set [16] deals with T1, IFN-gamma. In words: inhibition; ELISA day 2; text assigns ARC872 to E3 but printed sequence matches F3. As to conditions: tags: R&D Systems, Minneapolis; chain copies: 2; putative G4. As for the experimental part:
as §1, §2

T1 sequence (P01579 24-161, one chain of several): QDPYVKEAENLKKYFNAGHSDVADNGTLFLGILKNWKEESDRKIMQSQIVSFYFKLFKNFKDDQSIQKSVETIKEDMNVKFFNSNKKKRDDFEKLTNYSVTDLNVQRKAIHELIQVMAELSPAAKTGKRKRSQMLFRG
T3 sequence (P15692 other isoform, or with tags, fused parts or gaps): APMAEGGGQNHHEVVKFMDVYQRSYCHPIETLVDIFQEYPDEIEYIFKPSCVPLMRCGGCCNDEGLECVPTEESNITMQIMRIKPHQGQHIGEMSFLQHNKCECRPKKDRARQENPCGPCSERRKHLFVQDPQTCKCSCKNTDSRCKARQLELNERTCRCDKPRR
T2 sequence (P01031 19-673, chain 1 of 2): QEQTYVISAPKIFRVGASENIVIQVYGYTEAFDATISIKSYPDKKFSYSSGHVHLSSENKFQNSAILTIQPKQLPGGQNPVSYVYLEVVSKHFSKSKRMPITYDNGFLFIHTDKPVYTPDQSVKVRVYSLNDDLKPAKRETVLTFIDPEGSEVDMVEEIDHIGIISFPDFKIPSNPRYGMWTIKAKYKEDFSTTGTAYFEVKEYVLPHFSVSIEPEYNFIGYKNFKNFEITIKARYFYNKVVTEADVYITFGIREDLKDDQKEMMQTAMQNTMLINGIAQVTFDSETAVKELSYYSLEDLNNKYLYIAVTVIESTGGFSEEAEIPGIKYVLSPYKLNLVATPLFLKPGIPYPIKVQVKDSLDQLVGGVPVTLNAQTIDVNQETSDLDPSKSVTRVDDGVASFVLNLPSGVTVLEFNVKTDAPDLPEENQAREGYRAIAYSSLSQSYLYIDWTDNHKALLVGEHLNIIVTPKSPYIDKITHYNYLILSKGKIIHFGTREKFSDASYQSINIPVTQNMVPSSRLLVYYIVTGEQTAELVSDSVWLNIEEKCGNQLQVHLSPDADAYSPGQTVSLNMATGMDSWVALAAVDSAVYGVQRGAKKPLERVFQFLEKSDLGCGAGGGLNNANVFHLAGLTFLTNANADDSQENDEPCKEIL
T2 sequence (P01031 678-1676, chain 2 of 2): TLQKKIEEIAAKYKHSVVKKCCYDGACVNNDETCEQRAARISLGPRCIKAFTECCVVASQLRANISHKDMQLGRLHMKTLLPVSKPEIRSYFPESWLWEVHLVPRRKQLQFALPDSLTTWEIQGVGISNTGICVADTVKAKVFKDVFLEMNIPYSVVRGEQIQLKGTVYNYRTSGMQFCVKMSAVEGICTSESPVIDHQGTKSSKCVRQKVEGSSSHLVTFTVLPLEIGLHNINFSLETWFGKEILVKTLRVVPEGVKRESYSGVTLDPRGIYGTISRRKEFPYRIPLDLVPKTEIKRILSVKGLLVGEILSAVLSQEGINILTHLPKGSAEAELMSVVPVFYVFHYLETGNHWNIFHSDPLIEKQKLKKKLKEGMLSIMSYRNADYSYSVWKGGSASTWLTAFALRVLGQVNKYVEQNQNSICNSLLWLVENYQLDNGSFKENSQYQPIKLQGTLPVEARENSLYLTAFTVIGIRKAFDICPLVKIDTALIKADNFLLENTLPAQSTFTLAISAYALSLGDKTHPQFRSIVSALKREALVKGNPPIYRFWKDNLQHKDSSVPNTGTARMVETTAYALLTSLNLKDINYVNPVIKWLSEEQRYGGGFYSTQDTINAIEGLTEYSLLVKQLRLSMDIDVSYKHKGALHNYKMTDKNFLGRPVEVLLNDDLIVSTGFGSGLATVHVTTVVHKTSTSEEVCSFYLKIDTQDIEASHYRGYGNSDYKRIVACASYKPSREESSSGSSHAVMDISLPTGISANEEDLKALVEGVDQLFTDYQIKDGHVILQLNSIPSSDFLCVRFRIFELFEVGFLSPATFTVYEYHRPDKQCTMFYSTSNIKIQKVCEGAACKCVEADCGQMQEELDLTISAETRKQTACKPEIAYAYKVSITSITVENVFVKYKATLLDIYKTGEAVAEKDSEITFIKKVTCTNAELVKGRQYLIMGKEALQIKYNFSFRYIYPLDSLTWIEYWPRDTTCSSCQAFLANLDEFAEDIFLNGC

B1: ARC821 (AMX(216)_A7) (mixed)
DNA: GGGAGAGGAGAGAACGTTCTACGGGGGTCGTGGGAGTAAGGGGGTGTAGGTAGGTCGATCGATCGATCATCGATG
modifications: dRmY: deoxy A,G; 2'-OMe C,U (cDNA printed, T=U)
A word on the Kd: it is a measure of binding affinity in units of concentration. High values mean weaker binding, low ones tighter binding. The term IC50 denotes the concentration that inhibits the measured activity by half. Lower therefore signals higher potency. In turn, B1 came in with a dissociation constant (Kd) with IFN-gamma [1] of 140 nM. Half-maximal inhibition with IFN-gamma [2] (IC50) was put at 130 nM.

B2: AMX221.E1 (mixed)
DNA: GGGAGAGGAGAGAACGTTCTACCTTGGTTTGGCACAGGCATACATACGCAGGGGTCGATCGATCGATCATCGATG
modifications: dRmY: deoxy A,G; 2'-OMe C,U (cDNA printed, T=U)
Consider B2, for which the IC50 in data set [3] was around 30 nM. Moreover, the Kd in data set [4] was around 140 nM.

B3: ARC818 (AMX(192)_E3) (mixed)
DNA: GGGAGAGGAGAGAACGTTCTACGGGTGGCTGGGGCAGGGGAGGTAGGTAGGGTCGATCGATCGATCATCGATG
modifications: dRmY: deoxy A,G; 2'-OMe C,U (cDNA printed, T=U)
In the data set with IFN-gamma [5], B3 yielded an IC50 of 220 nM. Also, the dissociation constant (Kd) in the data set with IFN-gamma [6] was determined as 180 nM.

B4: ARC820 (AMX(192)_D11) (mixed)
DNA: GGGAGAGGAGAGAACGTTCTACGGGGAGGAGGGTGGGGTAGCAGGTGTGGCAGGTCGATCGATCGATCATCGATG
modifications: dRmY: deoxy A,G; 2'-OMe C,U (cDNA printed, T=U)
In the data set with IFN-gamma [7], B4 showed an IC50 of 280 nM. In the data set with IFN-gamma [8], this molecule returned a Kd of 170 nM.

GGGUGGCUGGGGCAGGGGAGGUAGGUAGGG (mixed, dRmY: deoxy A,G; 2'-OMe C,U) [ARC873]: in the data set with IFN-gamma [9], half-maximal inhibition (IC50) was put at 330 nM.

B5: ARC245 (ssRNA)
RNA: AUGCAGUUUGAGAAGUCGCGCAU
modifications: 2'-OMe at all residues; 3'-inverted dT [2'-OMe at 1-23; 3'-inverted dT after nt 23 (not written in sequence)]
As for B5, in the data set with VEGF [10], the dissociation constant Kd came to 2.1 nM.

B6: ARC819 (AMX(192)_F3) (mixed)
DNA: GGGAGAGGAGAGAACGTTCTACGGGCGGTTGGGGTCGGGGAGGATGGTACAGGGTCGATCGATCGATCATCGATG
modifications: dRmY: deoxy A,G; 2'-OMe C,U (cDNA printed, T=U)
For the molecule B6, in the data set with IFN-gamma [11], the Kd worked out at 180 nM.

B7: ARC259 (ssRNA)
RNA: ACGCAGUUUGAGAAGUCGCGCGU
modifications: 2'-OMe at all residues; 3'-inverted dT [2'-OMe at 1-23; 3'-inverted dT after nt 23 (not written in sequence); base pair swap at 2 (U>C) and 22 (A>G)]
On to B7, for which the affinity with VEGF [12], expressed as Kd, was 1.4 nM.

B8: ARC789 (AMX(192)_A5) (mixed)
DNA: GGGAGAGGAGAGAACGTTCTACGTTTGCGGTCAGGATGGGGTGGTGGGAGGTCGATCGATCGATCATCGATG
modifications: dRmY: deoxy A,G; 2'-OMe C,U (cDNA printed, T=U)
In the data set with IFN-gamma [13], B8 yielded an IC50 of 40 nM. In addition, the Kd with IFN-gamma [14] was 150 nM.

B9: ARC224 (ssRNA)
RNA: CGAUAUGCAGUUUGAGAAGUCGCGCAUUCG
modifications: 2'-OMe at all residues; 3'-inverted dT [2'-OMe at 1-30; 3'-inverted dT after nt 30 (not written in sequence)]
For the molecule B9, in the data set with VEGF [10], the affinity, expressed as Kd, was 3.9 nM. Moreover, in the data set with VEGF [15], the IC50 was around 2 nM.

Consider GGGCGGUUGGGGUCGGGGAGGAUGGUACAGGG (mixed, dRmY: deoxy A,G; 2'-OMe C,U) [ARC872], for which inhibition in the data set with IFN-gamma [16] was half-maximal at 200 nM (IC50).
